The Immune Epitope Database (IEDB)

What was measured:
Assay in all cases: IEDB peptide-MHC binding, purified MHC/competitive/fluorescence; filed as Kd, often an IC50 or EC50 that approximates it; ≥ and ≤ were set here for values at or beyond the usual limits of such assays
Conditions in all cases: source organism: Vibrio antiquarius
HLA-A*25:01 = target: HLA-A*25:01
HLA-A*69:01 = target: HLA-A*69:01
HLA-A*02:19 = target: HLA-A*02:19
HLA-B*15:17 = target: HLA-B*15:17
HLA-B*18:01 = target: HLA-B*18:01
HLA-A*02:03 = target: HLA-A*02:03
HLA-B*46:01 = target: HLA-B*46:01
HLA-B*15:01 = target: HLA-B*15:01
HLA-A*03:01 = target: HLA-A*03:01
HLA-A*02:01 = target: HLA-A*02:01
HLA-A*80:01 = target: HLA-A*80:01
HLA-B*57:01 = target: HLA-B*57:01
HLA-B*51:01 = target: HLA-B*51:01
HLA-B*39:01 = target: HLA-B*39:01
HLA-B*27:03 = target: HLA-B*27:03
HLA-A*24:03 = target: HLA-A*24:03
HLA-A*26:01 = target: HLA-A*26:01
HLA-A*02:12 = target: HLA-A*02:12
HLA-A*29:02 = target: HLA-A*29:02
HLA-A*23:01 = target: HLA-A*23:01
HLA-A*68:02 = target: HLA-A*68:02
HLA-A*02:11 = target: HLA-A*02:11

## SLTIPSFYT
HLA-A*25:01
  Kd: ≥ 20 µM
HLA-A*69:01
  Kd: ≥ 20 µM
HLA-A*02:19
  Kd: ≥ 20 µM
HLA-B*15:17
  Kd: ≥ 20 µM
HLA-B*18:01
  Kd: ≥ 20 µM
HLA-A*02:03
  Kd: ≥ 20 µM
HLA-B*46:01
  Kd: ≥ 20 µM
HLA-B*15:01
  Kd: ≥ 20 µM
HLA-A*03:01
  Kd: ≥ 20 µM
HLA-A*02:01
  Kd: ≥ 20 µM
HLA-A*80:01
  Kd: ≥ 20 µM
HLA-B*57:01
  Kd: ≥ 20 µM
HLA-B*51:01
  Kd: ≥ 20 µM
HLA-B*39:01
  Kd: ≥ 20 µM
HLA-B*27:03
  Kd: ≥ 20 µM
HLA-A*24:03
  Kd: ≥ 20 µM
HLA-A*26:01
  Kd: ≥ 20 µM
HLA-A*02:12
  Kd: ≥ 20 µM
HLA-A*29:02
  Kd: ≥ 20 µM
HLA-A*23:01
  Kd: ≥ 20 µM
HLA-A*68:02
  Kd: ≥ 20 µM
HLA-A*02:11
  Kd: 0.0097 µM
